Data reported in publication PMC3084679 (Molecular Biology of the Cell, 2011).

Target: recombinant Roy1–Skp1 complex (S. cerevisiae, UniProt Q04847 1-553; P52286 1-194)
Assay: pull-down

recombinant Roy1–Skp1 complex, sequence (Q04847 whole entry, chain 1 of 2): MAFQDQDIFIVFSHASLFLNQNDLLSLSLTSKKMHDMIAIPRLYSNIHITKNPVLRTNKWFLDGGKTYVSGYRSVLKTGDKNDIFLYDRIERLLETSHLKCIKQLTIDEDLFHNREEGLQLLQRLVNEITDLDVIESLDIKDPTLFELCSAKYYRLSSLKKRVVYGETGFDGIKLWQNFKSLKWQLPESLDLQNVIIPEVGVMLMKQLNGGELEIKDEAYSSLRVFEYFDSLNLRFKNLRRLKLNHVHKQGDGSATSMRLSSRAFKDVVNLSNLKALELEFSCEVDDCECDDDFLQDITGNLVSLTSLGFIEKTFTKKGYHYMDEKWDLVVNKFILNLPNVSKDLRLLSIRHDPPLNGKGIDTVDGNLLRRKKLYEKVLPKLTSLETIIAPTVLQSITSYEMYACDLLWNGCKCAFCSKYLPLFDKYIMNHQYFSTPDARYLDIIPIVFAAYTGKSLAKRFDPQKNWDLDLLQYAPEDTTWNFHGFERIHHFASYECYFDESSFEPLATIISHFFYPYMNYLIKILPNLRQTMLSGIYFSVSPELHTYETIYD
recombinant Roy1–Skp1 complex, sequence (P52286 whole entry, chain 2 of 2): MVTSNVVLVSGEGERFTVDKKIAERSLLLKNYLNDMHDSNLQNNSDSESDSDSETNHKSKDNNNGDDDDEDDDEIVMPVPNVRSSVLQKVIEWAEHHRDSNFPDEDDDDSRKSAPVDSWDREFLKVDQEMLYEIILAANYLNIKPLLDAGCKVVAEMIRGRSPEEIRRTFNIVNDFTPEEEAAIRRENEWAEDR

- binding result: binds
B1: GST-Ypt52 (natural protein, S. cerevisiae, UniProt P36018 1-234, looked up)
chain: MLQFKLVLLGDSSVGKSSIVHRFVKDTFDELRESTIGAAFLSQSITIHPNDGNETKDVVIKFEIWDTAGQERYKSLAPMYYRNANAALVVYDITQEDSLQKARNWVDELKNKVGDDDLVIYLLGNKVDLCQETPSTETSPDSNEGGDEEQKVRAISTEEAKQYAQEQGLLFREVSAKTGEGVKEIFQDIGEKLYDLKKDEILSKQNRQIGGGNNGQVDINLQRPSTNDPTSCCS
